Measured values taken from paper PMC9482650, “Quantitative fragmentomics allow affinity mapping of interactomes” (Nature Communications, 2022).

T1: NHERF3_4, Q5T2W1
T1 sequence (Q5T2W1 373-468, limits assumed, looked up): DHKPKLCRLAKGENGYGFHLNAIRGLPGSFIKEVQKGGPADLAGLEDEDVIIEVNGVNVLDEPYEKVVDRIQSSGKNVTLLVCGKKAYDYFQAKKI

T2: DVL3, Q92997
T2 sequence (Q92997 244-331, limits assumed, looked up): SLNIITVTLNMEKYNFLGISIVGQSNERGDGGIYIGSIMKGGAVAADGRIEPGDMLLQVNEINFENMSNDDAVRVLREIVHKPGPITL

T3: APBA1_2, Q02410
T3 sequence (Q02410 742-832, limits assumed, looked up): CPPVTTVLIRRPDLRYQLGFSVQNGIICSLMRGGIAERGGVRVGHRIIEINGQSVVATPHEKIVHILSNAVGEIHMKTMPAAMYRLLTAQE

T4: DFNB31_3, Q9P202
T4 sequence (Q9P202 811-907, limits assumed, looked up): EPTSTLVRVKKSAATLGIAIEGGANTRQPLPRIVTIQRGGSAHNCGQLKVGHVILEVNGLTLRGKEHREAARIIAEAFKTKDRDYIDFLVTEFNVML

T5: APBA2_1, Q99767
T5 sequence (Q99767 563-664, limits assumed, looked up): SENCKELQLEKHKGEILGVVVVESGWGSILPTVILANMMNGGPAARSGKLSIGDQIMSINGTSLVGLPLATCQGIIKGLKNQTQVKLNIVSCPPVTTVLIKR

T6: GRIP1_3, Q9Y3R0
T6 sequence (Q9Y3R0 247-346, limits assumed, looked up): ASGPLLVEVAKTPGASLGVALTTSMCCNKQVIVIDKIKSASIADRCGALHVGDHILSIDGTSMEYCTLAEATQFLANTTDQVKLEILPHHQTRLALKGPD

T7: HTRA3, P83110
T7 sequence (P83110 354-453, limits assumed, looked up): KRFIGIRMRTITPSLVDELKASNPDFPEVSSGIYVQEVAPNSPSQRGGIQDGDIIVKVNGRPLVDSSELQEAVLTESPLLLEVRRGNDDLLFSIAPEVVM

T8: TJP3_3, O95049
T8 sequence (O95049 375-456, limits assumed, looked up): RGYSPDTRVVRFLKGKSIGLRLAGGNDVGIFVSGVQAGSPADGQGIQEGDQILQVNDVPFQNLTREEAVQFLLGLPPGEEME

T9: PDZD7_3, Q9H5P4
T9 sequence (Q9H5P4 857-944, limits assumed, looked up): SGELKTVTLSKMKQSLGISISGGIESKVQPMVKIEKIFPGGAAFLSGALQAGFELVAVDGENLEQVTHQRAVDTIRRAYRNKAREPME

T10: PDZD2_2, O15018
T10 sequence (O15018 329-429, limits assumed, looked up): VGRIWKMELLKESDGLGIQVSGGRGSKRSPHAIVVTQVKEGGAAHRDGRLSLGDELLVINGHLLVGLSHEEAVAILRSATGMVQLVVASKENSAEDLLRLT

T11: LRRC7, Q96NW7
T11 sequence (Q96NW7 1440-1537, limits assumed, looked up): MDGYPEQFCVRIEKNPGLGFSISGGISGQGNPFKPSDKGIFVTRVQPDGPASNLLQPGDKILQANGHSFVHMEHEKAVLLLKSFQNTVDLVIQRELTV

T12: LNX2_3, Q8N448
T12 sequence (Q8N448 463-564, limits assumed, looked up): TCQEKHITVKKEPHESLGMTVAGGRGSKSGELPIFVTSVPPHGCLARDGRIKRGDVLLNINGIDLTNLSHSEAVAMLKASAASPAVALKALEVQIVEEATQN

T13: NHERF3_3, Q5T2W1
T13 sequence (Q5T2W1 238-333, limits assumed, looked up): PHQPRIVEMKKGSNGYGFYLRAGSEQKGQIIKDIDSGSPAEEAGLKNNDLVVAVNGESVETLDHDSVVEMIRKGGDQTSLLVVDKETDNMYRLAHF

T14: APBA3_1, O96018
T14 sequence (O96018 389-490, limits assumed, looked up): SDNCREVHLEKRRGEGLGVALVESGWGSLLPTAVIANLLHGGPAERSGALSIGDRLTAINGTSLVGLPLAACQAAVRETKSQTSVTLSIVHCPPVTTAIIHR


Legend:
Assay in all cases: holdup assay
Design in all cases: key: below the threshold = too weak to quantify, mostly under pKd 3.1 to 4
Settings in all cases: plain residues with an end cap or a label only (N-terminal biotin on a linker: ado-ado)
GRIP2_7, Q9C0E4 = molecular target: GRIP2_7, Q9C0E4
NHERF3_4, Q5T2W1 = molecular target: T1, NHERF3_4, Q5T2W1
DVL3, Q92997 = molecular target: T2, DVL3, Q92997
TJP1_3, Q07157 = molecular target: TJP1_3, Q07157
DLG2_2, Q15700 = molecular target: DLG2_2, Q15700
APBA1_2, Q02410 = molecular target: T3, APBA1_2, Q02410
DFNB31_3, Q9P202 = molecular target: T4, DFNB31_3, Q9P202
APBA2_1, Q99767 = molecular target: T5, APBA2_1, Q99767
GRIP1_3, Q9Y3R0 = molecular target: T6, GRIP1_3, Q9Y3R0
GIPC2, Q8TF65 = molecular target: GIPC2, Q8TF65
HTRA3, P83110 = molecular target: T7, HTRA3, P83110
FRMPD2_3, Q68DX3 = molecular target: FRMPD2_3, Q68DX3
LNX1_1, Q8TBB1 = molecular target: LNX1_1, Q8TBB1
TJP3_3, O95049 = molecular target: T8, TJP3_3, O95049
PDZD7_3, Q9H5P4 = molecular target: T9, PDZD7_3, Q9H5P4
PDZD2_2, O15018 = molecular target: T10, PDZD2_2, O15018
LRRC7, Q96NW7 = molecular target: T11, LRRC7, Q96NW7
LNX2_3, Q8N448 = molecular target: T12, LNX2_3, Q8N448
NHERF3_3, Q5T2W1 = molecular target: T13, NHERF3_3, Q5T2W1
APBA3_1, O96018 = molecular target: T14, APBA3_1, O96018
MAST1, Q9Y2H9 = molecular target: MAST1, Q9Y2H9
Inadl_5, Q8NI35 = molecular target: Inadl_5, Q8NI35
Inadl_9, Q8NI35 = molecular target: Inadl_9, Q8NI35
IL16_3, Q14005 = molecular target: IL16_3, Q14005
IL16_3, Q14005, sequence (Q14005 1107-1207): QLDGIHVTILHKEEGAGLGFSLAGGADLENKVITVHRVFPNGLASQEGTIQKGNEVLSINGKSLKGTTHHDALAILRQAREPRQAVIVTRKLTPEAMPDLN

Inadl_9, Q8NI35, sequence (Q8NI35 1530-1615): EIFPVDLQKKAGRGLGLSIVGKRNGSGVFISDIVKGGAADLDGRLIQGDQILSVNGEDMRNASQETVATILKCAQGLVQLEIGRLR
MAST1, Q9Y2H9, sequence (Q9Y2H9 962-1065): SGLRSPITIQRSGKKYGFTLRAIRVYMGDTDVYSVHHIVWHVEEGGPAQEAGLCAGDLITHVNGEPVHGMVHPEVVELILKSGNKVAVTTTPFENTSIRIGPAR
GIPC2, Q8TF65, sequence (Q8TF65 112-203): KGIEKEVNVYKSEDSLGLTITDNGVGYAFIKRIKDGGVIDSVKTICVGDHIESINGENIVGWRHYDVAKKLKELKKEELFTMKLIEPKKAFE
Inadl_5, Q8NI35, sequence (Q8NI35 673-780): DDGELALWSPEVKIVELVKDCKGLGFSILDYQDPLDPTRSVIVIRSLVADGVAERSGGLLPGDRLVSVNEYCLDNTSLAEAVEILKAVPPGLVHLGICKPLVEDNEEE
FRMPD2_3, Q68DX3, sequence (Q68DX3 1073-1166): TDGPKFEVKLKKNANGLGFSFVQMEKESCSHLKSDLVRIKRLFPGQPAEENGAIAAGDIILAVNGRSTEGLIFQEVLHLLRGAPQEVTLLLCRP
TJP1_3, Q07157, sequence (Q07157 416-512): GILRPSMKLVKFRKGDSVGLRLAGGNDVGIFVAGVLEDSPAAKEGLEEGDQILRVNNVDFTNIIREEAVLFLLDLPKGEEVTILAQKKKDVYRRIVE
LNX1_1, Q8TBB1, sequence (Q8TBB1 261-371): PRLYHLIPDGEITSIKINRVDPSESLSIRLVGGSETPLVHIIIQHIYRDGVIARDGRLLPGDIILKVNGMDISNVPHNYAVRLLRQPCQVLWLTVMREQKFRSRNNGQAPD
GRIP2_7, Q9C0E4, sequence (Q9C0E4 934-1023): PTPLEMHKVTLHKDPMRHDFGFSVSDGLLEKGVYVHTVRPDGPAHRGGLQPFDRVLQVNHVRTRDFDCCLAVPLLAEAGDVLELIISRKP
DLG2_2, Q15700, sequence (Q15700 189-283): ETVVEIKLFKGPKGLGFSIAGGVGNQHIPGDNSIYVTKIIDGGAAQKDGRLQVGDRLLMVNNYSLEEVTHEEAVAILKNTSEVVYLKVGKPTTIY

pKd (GRIP2_7, Q9C0E4)	pKd (NHERF3_4, Q5T2W1)	pKd (DVL3, Q92997)	pKd (TJP1_3, Q07157)	pKd (DLG2_2, Q15700)	pKd (APBA1_2, Q02410)	pKd (DFNB31_3, Q9P202)	pKd (APBA2_1, Q99767)	pKd (GRIP1_3, Q9Y3R0)	pKd (GIPC2, Q8TF65)	pKd (HTRA3, P83110)	pKd (FRMPD2_3, Q68DX3)	pKd (LNX1_1, Q8TBB1)	pKd (TJP3_3, O95049)	pKd (PDZD7_3, Q9H5P4)	pKd (PDZD2_2, O15018)	pKd (LRRC7, Q96NW7)	pKd (LNX2_3, Q8N448)	pKd (NHERF3_3, Q5T2W1)	pKd (APBA3_1, O96018)	Binder	other results
below the threshold	below the threshold	below the threshold	below the threshold	below the threshold	below the threshold	3.63	below the threshold	below the threshold	below the threshold	below the threshold	below the threshold	below the threshold	below the threshold	4.98	below the threshold	below the threshold	below the threshold	below the threshold	below the threshold	DDPSTAETVL [ABCA7, Q8IZY2]	pKd (MAST1, Q9Y2H9): 4.88; pKd (Inadl_5, Q8NI35): below the threshold; pKd (Inadl_9, Q8NI35): below the threshold; pKd (IL16_3, Q14005): below the threshold
below the threshold	3.48	below the threshold	below the threshold	4.32	below the threshold	4.8	below the threshold	below the threshold	3.49	below the threshold	below the threshold	4.27	below the threshold	5.15	4.25	below the threshold	below the threshold	below the threshold	below the threshold	QHKTQLQTLI [BPIFA2, Q96DR5]	pKd (MAST1, Q9Y2H9): below the threshold; pKd (Inadl_5, Q8NI35): below the threshold; pKd (Inadl_9, Q8NI35): below the threshold; pKd (IL16_3, Q14005): below the threshold
below the threshold	3.59	below the threshold	below the threshold	below the threshold	below the threshold	below the threshold	below the threshold	below the threshold	below the threshold	below the threshold	below the threshold	3.58	below the threshold	below the threshold	below the threshold	below the threshold	below the threshold	below the threshold	below the threshold	PEYLGLDVPV [ERBB2, P04626]	pKd (MAST1, Q9Y2H9): 3.98; pKd (Inadl_5, Q8NI35): below the threshold; pKd (Inadl_9, Q8NI35): below the threshold; pKd (IL16_3, Q14005): below the threshold
